Values quoted from earlier work in PMC3373023.

What was measured:
His4 = His4 (UniProt position 25, YTLKCHNTQLP)
Asp42 = Asp42 (UniProt position 63, KRGCADNCPKN)
Glu17 = Glu17 (UniProt position 38, YKTCPEGKNLC)
Asp59 = Asp59 (UniProt position 80, VCCSTDKCN--)
His52 = His52 (UniProt position 181, TLTLSHFGKC-)
Glu43 = Glu43 (UniProt position 172, CNAVVESNGTL)
Tyr31 = Tyr31 (UniProt position 160, SDNKTYGNKCN)
Asp27 = Asp27 (UniProt position 156, PLCGSDNKTYG)
Lys29 = Lys29 (UniProt position 158, CGSDNKTYGNK)
Tyr11 = Tyr11 (UniProt position 140, VDCSEYPKPAC)
Glu19 = Glu19 (UniProt position 148, PACTLEYRPLC)
Lys13 = Lys13 (UniProt position 142, CSEYPKPACTL)
Asp7 = Asp7 (UniProt position 136, AAVSVDCSEYP)
Lys55 = Lys55 (UniProt position 184, LSHFGKC----)
Glu10 = Glu10 (UniProt position 139, SVDCSEYPKPA)
Tyr20 = Tyr20 (UniProt position 149, ACTLEYRPLCG)
Lys34 = Lys34 (UniProt position 163, KTYGNKCNFCN)

| Substance | pKa (His4) | pKa (Asp42) | pKa (Glu17) | pKa (Asp59) | pKa (His52) | pKa (Glu43) | pKa (Tyr31) | pKa (Asp27) | pKa (Lys29) | pKa (Tyr11) | pKa (Glu19) | pKa (Lys13) | pKa (Asp7) | pKa (Lys55) | pKa (Glu10) | pKa (Tyr20) | pKa (Lys34) |
| --- | --- | --- | --- | --- | --- | --- | --- | --- | --- | --- | --- | --- | --- | --- | --- | --- | --- |
| Cardiotoxin V (CTX A5, cardiotoxin A5) (Naja naja atra (Naja atra, Taiwan cobra)) | 5.6 | 3.2 | 4.0 | <2.3 |  |  |  |  |  |  |  |  |  |  |  |  |  |
| Turkey ovomucoid third domain (OMTKY3) (Meleagris gallopavo) |  |  |  |  | 7.5 | 4.8 | >12.5 | ≤2.3 | 11.1 | 10.2 | 3.2 | 9.9 | ≤2.7 | 11.1 | 4.2 | 11.1 | 10.1 |
